Assay results as given in patent publication US20240116985A1 (published 2024).
Starred links: 1 amine or outer side, 2 acyl side, 3 side chain; linkers in the order of their positions; H or OH if unused. Positions of bridges follow the written chain, without caps; N, C: chain ends. Non-standard residues stand in square brackets, D forms with d. Primed or numbered codes have the meaning given here. PyrS2″ = (S)-3-amino-1-((pent-4-en-1-yloxy)carbonyl)pyrrolidine-3-carboxylic acid (stapling residue), C=CCCCOC(=O)N1CC[C@@](N[*:1])(C(=O)[*:2])C1; B5(4) = 2,2-bis(4-pentenyl)glycine = 2-amino-2-(pent-4-en-1-yl)hept-6-enoic acid (stitching residue), C=CCCCC(CCCC=C)(N[*:1])C(=O)[*:2]; TfeGA = (S)-2-amino-3-((carboxymethyl)(2,2,2-trifluoroethyl)amino)propanoic acid, O=C([C@H](CN(CC(=O)[*:3])CC(F)(F)F)N[*:1])[*:2]; B5 = 2-amino-2-(pent-4-en-1-yl)hept-6-enoic acid, C=CCCCC(CCCC=C)(N[*:1])C(=O)[*:2]; AcLys″ = N6-acetyl-lysine, CC(=O)NCCCC[C@H](N[*:1])C(=O)[*:2]; Phe(3-OMe) = COc1cccc(C[C@H](N)C(=O)O)c1; Bta = N[C@@H](Cc1csc2ccccc12)C(=O)O; αAllylPro = C=CC[C@@]1(C(=O)O)CCCN1; tBuAla = CC(C)(C)C[C@H](N)C(=O)O; 3Thi = N[C@@H](Cc1ccsc1)C(=O)O; S8 = C=CCCCCCC[C@](C)(N)C(=O)O

Columns and labels:
[1] = molecular target: T1, beta-catenin in DLD1 TCF/LEF luciferase reporter cells (UniProt P35222 1-781); test: cell-based or functional assay
T1 sequence (looked up): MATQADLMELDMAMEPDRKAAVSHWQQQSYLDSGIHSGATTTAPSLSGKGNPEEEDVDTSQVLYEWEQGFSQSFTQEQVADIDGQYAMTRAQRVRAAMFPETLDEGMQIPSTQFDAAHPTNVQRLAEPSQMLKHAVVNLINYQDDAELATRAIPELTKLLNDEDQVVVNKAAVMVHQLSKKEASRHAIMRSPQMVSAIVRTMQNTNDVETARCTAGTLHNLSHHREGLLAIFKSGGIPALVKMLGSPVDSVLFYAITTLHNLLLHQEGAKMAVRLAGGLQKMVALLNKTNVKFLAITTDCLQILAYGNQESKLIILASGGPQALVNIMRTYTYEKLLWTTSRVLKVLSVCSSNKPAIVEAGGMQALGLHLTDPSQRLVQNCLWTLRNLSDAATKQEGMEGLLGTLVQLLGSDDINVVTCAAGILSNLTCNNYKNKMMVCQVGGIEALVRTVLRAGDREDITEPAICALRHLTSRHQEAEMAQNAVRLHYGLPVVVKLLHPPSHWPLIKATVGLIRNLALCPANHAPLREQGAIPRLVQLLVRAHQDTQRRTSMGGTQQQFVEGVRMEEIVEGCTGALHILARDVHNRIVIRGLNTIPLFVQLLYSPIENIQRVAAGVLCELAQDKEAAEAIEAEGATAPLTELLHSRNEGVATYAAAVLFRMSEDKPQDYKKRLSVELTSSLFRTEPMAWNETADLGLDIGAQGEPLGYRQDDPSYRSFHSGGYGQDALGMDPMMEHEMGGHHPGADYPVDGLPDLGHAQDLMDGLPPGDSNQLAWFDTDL

B-cat-Halo = molecular target: T2, B-cat-Halo (UniProt P35222 1-781); test: cell-based or functional assay
T2 sequence (looked up): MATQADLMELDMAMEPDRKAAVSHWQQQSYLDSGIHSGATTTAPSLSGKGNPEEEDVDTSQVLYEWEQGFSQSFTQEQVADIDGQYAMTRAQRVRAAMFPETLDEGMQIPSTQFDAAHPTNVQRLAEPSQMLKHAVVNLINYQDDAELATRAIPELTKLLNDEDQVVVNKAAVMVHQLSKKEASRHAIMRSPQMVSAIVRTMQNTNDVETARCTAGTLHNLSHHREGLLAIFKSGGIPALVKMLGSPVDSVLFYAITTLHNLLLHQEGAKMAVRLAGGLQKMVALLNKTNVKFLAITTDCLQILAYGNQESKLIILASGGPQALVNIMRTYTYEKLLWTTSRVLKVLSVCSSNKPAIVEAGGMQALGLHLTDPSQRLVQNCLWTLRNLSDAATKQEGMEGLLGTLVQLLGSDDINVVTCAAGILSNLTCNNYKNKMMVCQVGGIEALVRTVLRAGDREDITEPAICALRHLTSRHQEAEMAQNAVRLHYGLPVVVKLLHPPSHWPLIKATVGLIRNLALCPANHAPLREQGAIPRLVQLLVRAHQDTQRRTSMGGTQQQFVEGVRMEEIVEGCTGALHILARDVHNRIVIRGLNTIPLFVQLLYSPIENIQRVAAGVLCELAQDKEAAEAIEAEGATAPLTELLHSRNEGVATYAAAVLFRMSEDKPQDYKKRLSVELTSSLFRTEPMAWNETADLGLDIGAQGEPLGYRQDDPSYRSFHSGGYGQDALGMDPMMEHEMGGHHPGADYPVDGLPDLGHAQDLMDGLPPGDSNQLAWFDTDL

[2] = molecular target: T3, full-length beta-Catenin (Uniprot ID P35222) (Homo sapiens (Human), UniProt P35222 1-781); test: fluorescence polarization competition; peptide titrated against full-length beta-catenin + 5FAM-TCF4(10-53)
T3 construct: also called bCat; B-Catenin
T3 sequence: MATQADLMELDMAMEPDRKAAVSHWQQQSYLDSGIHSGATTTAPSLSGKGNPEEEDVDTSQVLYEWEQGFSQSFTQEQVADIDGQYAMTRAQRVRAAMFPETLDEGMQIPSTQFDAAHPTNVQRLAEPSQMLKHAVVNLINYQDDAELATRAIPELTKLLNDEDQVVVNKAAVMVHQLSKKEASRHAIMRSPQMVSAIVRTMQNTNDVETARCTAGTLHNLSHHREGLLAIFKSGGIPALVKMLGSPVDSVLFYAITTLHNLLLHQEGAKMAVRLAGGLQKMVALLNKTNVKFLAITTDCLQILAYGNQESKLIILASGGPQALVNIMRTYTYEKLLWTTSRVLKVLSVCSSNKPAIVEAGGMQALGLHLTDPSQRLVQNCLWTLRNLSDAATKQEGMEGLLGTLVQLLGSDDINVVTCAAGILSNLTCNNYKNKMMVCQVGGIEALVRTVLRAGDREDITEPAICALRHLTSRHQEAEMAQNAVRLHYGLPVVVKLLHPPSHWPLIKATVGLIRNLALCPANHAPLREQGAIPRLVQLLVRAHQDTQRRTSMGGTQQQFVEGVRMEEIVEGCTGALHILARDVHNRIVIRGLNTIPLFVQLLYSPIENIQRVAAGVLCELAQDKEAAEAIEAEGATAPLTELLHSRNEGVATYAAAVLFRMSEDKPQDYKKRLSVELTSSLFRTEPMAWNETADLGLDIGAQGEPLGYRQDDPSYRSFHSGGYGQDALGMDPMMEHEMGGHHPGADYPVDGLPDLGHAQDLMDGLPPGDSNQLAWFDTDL
Method: The plate was incubated protected from light for 60 minutes at 20° C. prior to read. Reads were performed on a CLARIOstar plate reader (BMG Labtech) in duplicate, and data were fitted to a 1:1 binding model with hill slope using an in-house script. All provided concentrations are final concentrations.

| Binder | DLD1 4% Abs IC50 [1] [µM] | NanoBRET Abs IC50 (B-cat-Halo) [µM] | IC50 [2] [µM] |
| --- | --- | --- | --- |
| Ac-[αAllylPro]D[tBuAla][B5(4)]D[TfeGA]AAFL[PyrS2″][3Thi][Bta][AcLys″]-NH2 (staple 1-4, 4-11) [I-1709] | 3.9 | 6.2 | – |
| Ac-[αAllylPro]DI[B5]DEAA[Phe(3-OMe)]Q[S8]F[Bta]Q-NH2 (staple 1-4, 4-11, also called Ac-PL3-Asp-Ile-B5-Asp-Glu-Ala-Ala-3OMeF-Gln-S8-Phe-BztA-Gln-NH2) [I-724] | – | – | 0.114 |
